System: MS2 coat protein
Assay: apparent KD of MS2 coat protein; designed switch direction (-1 OFF switch, 1 ON switch): -1; higher = weaker reporter binding
Summary of the method: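 For each design, the apparent KD is the median over clusters of curves fitted to normalised cluster fluorescence. Clusters held RNA switches with common flanks, transcribed on Illumina chips by stalled E. coli RNA polymerase. These were titrated with SNAP-549-labelled MS2 coat protein, doubling from 0.7 or 1.5 nM to 3 µM, without input, with 200 uM small-molecule ligand, or with an oligonucleotide input.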

[1] = Eterna round: R95, input ligand: FMN 200 uM
[2] = Eterna round: R95, input ligand: microRNA oligo, concentration not stated
[3] = Eterna round: R95, input ligand: none
[4] = input ligand: microRNA oligo, concentration not stated

Sequence | apparent KD of MS2 coat protein [1] [nM] | apparent KD of MS2 coat protein [2] [nM] | apparent KD of MS2 coat protein [3] [nM] | apparent KD of MS2 coat protein (input ligand: FMN 200 uM) [nM] | apparent KD of MS2 coat protein (input ligand: none) [nM] | apparent KD of MS2 coat protein [4] [nM]
UAUUCUAGAUAGGAUAUACUUUUUUUUUUUUUCGUAGAAGGAUCUACAUGAGGAUCACCCAUGUUAUCAGCAGU [JR_E6_Sub011] (puzzle: Exclusion 6) | 27.5 | 30.2 | 22.4 |  |  | 
UAUUGCAAGCGAAGAUCCCACAUGAGGAUCACCCAUGUGCUCGUCUUAUAAGGUACUGUGACGAUAGUCACGGUACC [Mat - Sensor, turn-off var - Eli Mod - D76] (Eterna round: R97, puzzle: Sensor, turn-off variant 1) |  |  |  | 34 | 30.6 | 
UAUUGCAAGUGAGGAUAUGACAUGAGGAUCACCCAUGUAAAGGGAGUUGGCUAUAUAGCAAGAUUUCAGAAGGCACUACUGUAU [JR_ExcNG2_Sub006] (Eterna round: R96, puzzle: Exclusion NG 2) |  |  |  | 133 | 56.3 | 32.6
UAUUUACAUGAGGAUCACCCAUGUCAGGAUAUGCGUCUAUCGUCGAAAGACGAUAGCCGCAGAAGGGACAAUAU [LRO-Excl01-21 mod derived from EliFisker 4.24] (Eterna round: R97, puzzle: Exclusion 1) |  |  |  | 87.3 | 58.1 | 
UAUUUACAUGAGGAUCACCCAUGUUAGGAUAUGUUUCUAUCGUCGAAAGAUGAUAUUUGCAGAAGGGACAAUAU [LRO-Excl01-28 mod derived from EliFisker 4.24] (Eterna round: R97, puzzle: Exclusion 1) |  |  |  | 24 | 24.3 | 
UAUUUAGCAAGCAGAUCCCACAUGAGGAUCACCCAUGUUCUCUGAACGUACAGAAUUACUGUACGAGCUCGUCUUAU [Winner reversed engineered 30] (Eterna round: R97, puzzle: Sensor, turn-off variant 1) |  |  |  | 352 | 352 | 
UCAAGCUUUAAGCGUGUGAACAUGAGGAUCACCCAUGUAUUUUAGGUAAUAAGUUCAAUUAUGUAUUCUCGUCUUAU [JR_SWV3TOV1_Sub095] (Eterna round: R96, puzzle: Sensor v3, turn-off variant 1) |  |  |  | 61.5 | 65.4 | 45.4
UCAAGCUUUAAGCGUGUGAACAUGAGGAUCACCCAUGUAUUUUAGGUAAUAAGUUCAAUUAUGUAUUCUCGUCUUAU [JR_SWV3TOV1_Sub095] (puzzle: Sensor v3, turn-off variant 1) | 42.4 | 37.4 | 45.6 |  |  | 
UCAAGUAUGUAGGAUAUGAUGUGAUUGUACAUAUCAGAAGGACGUACAUGAGGAUCACCCAUGUAACUUGCAUG [Exclusion 6 - B - 12:b] (puzzle: Exclusion 6) | 43.1 | 144 | 144 |  |  | 
UCACCGCAAGGAUAUACUUGCGGUGAUGUUCGAAAUCUUCUACUUGAGGAUCACCCAAGUAGAAGGUGCGGUGA [jl-ex2.4.66 ViennaUCT mod] (Eterna round: R97, puzzle: Exclusion 2) |  |  |  | 14.3 | 12.8 | 
UCACGGGACUAAGGAUAUACAUGAACUAUUAUUGUAGAAGGUAGAAUGUUAGCUUAUACACUAAACAUGAGGAUCACCCAUGUA [JR_ExcNG1_Sub095] (Eterna round: R96, puzzle: Exclusion NG 1) |  |  |  |  |  | 26.9
UCACGGGACUGAGGAUAUACAUCAACAAUGGUUGUAGAAGGCAGAAGGUUGAAUCAUAUACUAAACAUGAGGAUCACCCAUGUU [JR_ExcNG1_Sub031] (Eterna round: R96, puzzle: Exclusion NG 1) |  |  |  | 16.4 | 24.1 | 16.6
UCACGGGACUGAGGAUAUACAUGAACCAUUUUUGUAGAAGGCAGAAUGUUUGAUCAUACACUAAACAUGAGGAUCACCCAUGUU [JR_ExcNG1_Sub026] (Eterna round: R96, puzzle: Exclusion NG 1) |  |  |  | 16 | 20.1 | 16.3
UCACGGGAUUGAGGAUAUAUAUAAAUUUAUACAAUAGAAGGCAAAUUUUUAGUUUUUUCACUUUACAUGAGGAUCACCCAUGUU [JR_ExcBG1_Sub083] (Eterna round: R96, puzzle: Exclusion NG 1) |  |  |  |  |  | 20.1
UCACUACCGCAAGGAUAUGUUGUCUGACACGCUGCGUGACAUGAGGAUCACCCAUGUGCUAGUUCGCAGAAGGUGCGGAAUGUG [Eternabot solution 34] (Eterna round: R96, puzzle: Exclusion NG 2) |  |  |  | 63.2 | 17.1 | 9.98
UCAGGUCGGUAGGAUAUCGACGGGAAAAUCCCACGAGAAGGACUGACAUGAGGAUCACCCAUGUGAGCGUAACC [EX6 B.11] (Eterna round: R97, puzzle: Exclusion 6) |  |  |  | 149 | 202 | 
UCAUACGGUGAGGAUAUCUCCACUAAAGUGUGAAGAGAAGGCGCUACAUGAGGAUCACCCAUGUUUAUGGGCAG [Ex-6 Malc#14] (puzzle: Exclusion 6) | 27 | 56.5 | 116 |  |  | 
UCAUGGGAGGCAGCUGCCCACAUGAGGAUCACCCAUGUUUUAGACAAACGGGUACAAGCUUUUAAUGCUCUUCUUUG [Eternabot (L2) Solution 49] (Eterna round: R97, puzzle: Sensor, turn-off variant 1) |  |  |  | 587 | 248 | 

Sequence | apparent KD of MS2 coat protein [1] [nM] | apparent KD of MS2 coat protein [2] [nM] | apparent KD of MS2 coat protein [3] [nM] | apparent KD of MS2 coat protein (input ligand: FMN 200 uM) [nM] | apparent KD of MS2 coat protein (input ligand: none) [nM] | apparent KD of MS2 coat protein [4] [nM]
UCAUGUUAGCAGGAUAUGCUAUUUAUUUUUUAUGCAGAAGGGCUUACAUGAGGAUCACCCAUGUAUUAAGUUUU [JR_E6_Sub074] (puzzle: Exclusion 6) |  | 115 |  |  |  | 
UCAUGUUAGCAGGAUAUGCUAUUUAUUUUUUAUGCAGAAGGGCUUACAUGAGGAUCACCCAUGUGUUAGGUUUU [JR_E6_Sub073] (Eterna round: R96, puzzle: Exclusion 6) |  |  |  | 34.8 | 70.6 | 41.5
UCAUGUUAGCAGGAUAUGCUAUUUAUUUUUUAUGCAGAAGGGCUUACAUGAGGAUCACCCAUGUGUUAGGUUUU [JR_E6_Sub073] (puzzle: Exclusion 6) |  | 29.7 |  |  |  | 
UCAUGUUUAGAGGAUAUGAUUACUCUAGAGUGAUCAGAAGGCUAGACAUGAGGAUCACCCAUGUCACAACAUGA [Exclusion 6 - B - 16:c] (puzzle: Exclusion 6) | 73.6 | 44.5 | 128 |  |  | 
UCAUGUUUAGAGGAUAUGAUUACUUUAGAGUAAUCAGAAGGCUAGACAUGAGGAUCACCCAUGUCAUAACAUGA [Exclusion 6 - B - 15:a] (puzzle: Exclusion 6) | 38.3 | 62 | 54.3 |  |  | 
UCCAGCAUACGGAGAUCCAACAUGAGGAUCACCCAUGUCUGGAAAGCUUUUUGCUUGUCUUAUCCUCCUCUGUGUGC [Design #6] (Eterna round: R97, puzzle: Sensor, turn-off variant 1) |  |  |  | 22.5 | 22.9 | 
UCCAGGCGAGGAUAUACAAAGAUUUUUUCGUUUAGUCUCGAACAUGAGGAUCACCCAUGUAGAAGGUGCUUCAC [JR_Ex2_Sub011] (Eterna round: R97, puzzle: Exclusion 2) |  |  |  | 46.6 | 48.3 | 
UCCCAACAUGAGGAUCACCCAUGUAAGGAUAUCCAUGGACGACGGCAUUGUUCCCGGCGGAGAAGGUGCAUGGU [EX1 B.21] (Eterna round: R97, puzzle: Exclusion 1) |  |  |  | 46.4 | 27.6 | 
UCCGAACAUGAGGAUCACCCAUGUCAGGAUAUUCGGUUACGUGACAAAUAGUACUAACGAAGAAGGGACAUGCU [Eternabot (L2) Solution 26] (Eterna round: R97, puzzle: Exclusion 1) |  |  |  | 79.1 | 27.7 | 
UCCUCACAUGAGGAUCACCCAUGUCAGGAUAUGCGCGGCCAAAAGGGCUGCUAAGGCAGCAGAAGGGACGUGAA [Rarequtece] (puzzle: Exclusion 1) | 18.7 | 14.1 | 15 |  |  | 
UCCUCACUUGAGGAUCACCCAAGUCAGGAUAUUCACUGAACUGCGUAACAGUUCGGCCGAAGAAGGGAUUCGGG [Veatorma] (Eterna round: R97, puzzle: Exclusion 1) |  |  |  | 259 | 75 | 
UCGAUGCGAGGAUAUACUAAGGCAACUACUGCAGCUCAAAAACAUGAGGAUCACCCAUGUAGAAGGCGCAUAUA [JR_Exc002_Sub304] (Eterna round: R96, puzzle: Exclusion 2) |  |  |  |  |  | 12.9
UCGAUGUGAGGAUAUAUAUGCAGUAGUCCUUGUGUUUUAUAACUUGAGGAUCACCCAAGUAGAAGGCGCGACGU [JR_Ex2_Sub059] (Eterna round: R97, puzzle: Exclusion 2) |  |  |  | 37 | 33.5 | 
UCGCUGCGAGGAUAUACAUGAGGAUCACCCAUGUACGGGUCCGGGUCUUCGUCCAUUAGUAGAAGGCGCAGUGA [JL Laongeedie mod 2] (puzzle: Exclusion 3) |  | 47.7 |  |  |  | 
UCGGCGCGAGGAUAUACGUUUGCUUUUUAGGGUCGUGGCGUACAUGAGGAUCACCCAUGUAGAAGGCGCGCCGC [Apr-15 SS2-29] (puzzle: Exclusion 2) |  | 14.6 |  |  |  | 
UCGGCGCGAGGAUAUACGUUUGCUUUUUUUUGUUUUUGUGUACAUGAGGAUCACCCAUGUAGAAGGCGCGCCGC [Apr-15 SS2-21] (puzzle: Exclusion 2) |  | 22 |  |  |  | 
UCGUGGUAACUCAGCAGUUUCCUGAGCGGAGGAACUUUGACAUGAGGAUCACCCAUGUUGCUUUUUGCUCAUCUUAA [JR_SV3TOV2_Sub042] (puzzle: Sensor v3, turn-off variant 2) | 20.9 | 40.3 | 16.1 |  |  | 

— the supplement of paper PMC9170038
